{
  "source": "paper PMC7423924",
  "about": "“A fluorogenic cyclic peptide for imaging and quantification of drug-induced apoptosis” (Nature Communications, 2020)",
  "molecules": {"B1": {"name": "Annexin V: fluorescently-labeled (AF647) annexin V, PS-binding protein (protein, UniProt P08758 2-320, looked up)", "Annexin A5": "AQVLRGTVTDFPGFDERADAETLRKAMKGLGTDEESILTLLTSRSNAQRQEISAAFKTLFGRDLLDDLKSELTGKFEKLIVALMKPSRLYDAYELKHALKGAGTNEKVLTEIIASRTPEELRAIKQVYEEEYGSSLEDDVVGDTSGYYQRMLVVLLQANRDPDAGIDEAQVEQDAQALFQAGELKWGTDEEKFITIFGTRSVSHLRKVFDKYMTISGFQIEETIDRETSGNLEQLLLAVVKSIRSIPAYLAETLYYAMKGAGTDDHTLIRVMVSRSEIDLFNIRKEFRKNFATSLYSMIKGDTSGDYKKALLLLCGEDD", "modifications": "AF647 label"}},
  "system": "human monocyte-derived macrophages (MDMs)",
  "assay": "Phagocytosis of pHrodo-labeled apoptotic neutrophils by MDMs",
  "type": "cell-based",
  "details": "protein S 25 nM, AF647-Annexin V 25 nM",
  "procedure": "Neutrophils were cultured in the absence (black) or presence of Apo-15 (gray: 100 nM, white: 300 nM). Data presented as mean values ± SEM (n = 3). b Representative histograms of glucocorticoid-treated human MDMs after phagocytosis of pHrodo^TM-labeled neutrophils in the presence of different concentrations of Apo-15. Cells were analyzed using a 5L LSR cytometer with MDM identified based on their distinctive forward and side scatter properties (n = 4). Gating strategy in Supplementary Fig. 15A. c Flow cytometric quantification of phagocytosis of pHrodo^TM-labeled neutrophils by human MDMs. Human MDMs and neutrophils were co-cultured in the absence or presence of protein S (25 nM) and Apo-15 (60 or 600 nM) or AF647-Annexin V (25 nM). Data presented as mean values ± SEM (n ≥ 3). d Representative brightfield and fluorescence microscope images (from four independent experiments) of Apo-15-treated human neutrophils (green) in co-culture with human MDMs. […]\nOne potential limitation to the use of annexins for imaging apoptosis is their interference with the clearance of apoptotic cells by phagocytes. […] We examined whether Apo-15 affected the engulfment of apoptotic cells using a well-established in vitro assay to quantify the extent of phagocytosis in human monocyte-derived macrophages (MDMs) in the presence of the PS-opsonin protein S (Fig. 4b)[32],[33]. […]",
  "note": "Several values for one entry are separate records, joined by “and”; a condition that tells them apart may be missing. Equal entries are not always repeated.",
  "data": [
    {"molecule": "B1", "values": [
      {"measurement": "Phagocytosis assay (%)", "setting": "40 min, 37 °C, single replicates", "result": "30.0% and 35.0% and 33.0%"},
      {"measurement": "Reduction of the phagocytic capacity of MDMs", "setting": "Apo-15 60 or 600 nM", "result": "~ 50%"}
    ]}
  ]
}
